# Marks after values point to notes of the source that are not given here.
# What was measured:
# [1] = Cardiac indexes, HepG2 HCC mice; type: in vivo, nude mice; details: low dose, after treatment
# [2] = Blood routine, Bel-7402 HCC mice; type: in vivo, nude mice; details: high dose, after treatment
# [3] = tested on: HepG2; test: Drug concentration in tumor cells by HPLC, HepG2; type: cell-based, human; details: incubated 2 hours
# Description: (§1) When the density of HCC cells reached to 3 × 10^6/ml, they were trypsinized and centrifuge (4°C, 800rpm, 5min), then discarded the supernatant, dropping medium 3 ml and evenly mixed. Cell suspension was divided into three groups (control group, Doxorubicin-tripeptide conjugate group and Doxorubicin group). The drug concentration was 0.01 mg/ml for cultured 2 hours avoiding light. Then the cells obtained by centrifugation were proceeded by the following steps: washed 3 times with 1 ml normal saline, added 0.5 ml ultra pure water (Millipore), broken by ultrasonic wave, drooped in acetonitrile (Tianjin Concord Technology Co. Ltd, China) 0.5 ml, mixed, ultrasonic oscillation for 10 mins, centrifuge (1200 rpm, 15 min), take the supernatant, filtration with filter membrane, take 20 μl for HPLC analysis (Agilent 1100 HPLC system, USA).
# (§2) Chromatographic conditions were as follows: chromatographic column: DIONEX Acclaim 120 C18 (2.1 × 250 mm, 5 μm 120A), Mobile phase: Acetonitrile-0.2%NaH2PO4 aqueous solution (35: 65), Velocity: 0.35 ml/min, column temperature: 30°C, DAD, 254 nm, sample size: 20 μl. […] According to the chromatographic condition, the retention time (tR), peak position time, chromatographic behavior, resolution (R), the minimum detectable concentration and the intracellular drug concentration of these two drugs were detected in turn.
# [4] = Blood routine, HepG2 HCC mice; type: in vivo, nude mice; details: low dose, after treatment
# [5] = Drug distribution in tissues by Small Animal Imaging, HepG2 HCC mice; type: in vivo, nude mice; details: HepG2 HCC mice (low dose group), compared with control group
# Description: (§5) What's more, the tumor, liver, jejunum and heart tissue of mice were dissected firstly for Small Animal Imaging (KODAK IS in-vivo FX, Kodak), and secondly were placed in the 10% Formaldehyde solution to prepare paraffin section, HE staining for histological examination.
# [6] = tested on: HCC cells; test: MTT on HCC cells (cell line not given); type: cell-based, human
# Description: (§3) Cells in the growth log phase were seeded in 96-well plate (200 ul/well) with density 8×10^3/well for 24 hours, then the drugs were added. The concentration of Doxorubicin-tripeptide conjugate was 0.005 mg/ml, 0.01 mg/ml, 0.02 mg/ml, 0.04 mg/ml, 0.06 mg/ml in turn, while Doxorubicin followed by 0.005 mg/ml, 0.01 mg/ml, 0.02 mg/ml, 0.04 mg/ml, 0.06 mg/ml with a same dosing volume 100 μl. Each concentration group included five equal wells and was provided with a control well of medium alone as a negative control. Add 20 μl of MTT Reagent ( 5 mg/ml, Sigma) to each well, including controls and continue to be incubated at 37°C for 4 hours. Remove the supernatant, drop plus DMSO (200 μl/well) and measure the OD value in each well, including the blanks, at 490 nm by a Multi-Mode Reader (BioTek, Synergy 2, USA). To calculate the inhibitory rate and the half maximal inhibitory concentration (IC50) according to the formula: Inhibitory rate =(1-( the dosing group OD/the control group OD )) × 100%, IC50 = lg^-1 (Xm-i (ΣP-0.5)) (Xm: the logarithm of maximum concentration, I: the logarithm of maximum dose/ adjacent dose, P: the sum of each group inhibitory rate, Pm: the maximum inhibitory rate, Pn: the minimum inhibitory rate ).
# [7] = Cardiac indexes, Bel-7402 HCC mice; type: in vivo, nude mice; details: high dose, after treatment
# [8] = Drug distribution in tissues by Small Animal Imaging, Bel-7402 HCC mice; type: in vivo, nude mice; details: Bel-7402 HCC mice (high dose group), compared with Doxorubicin group
# Description: as §5
# [9] = tested on: Bel-7402; test: Drug concentration in tumor cells by HPLC, Bel-7402; type: cell-based, human; details: incubated 2 hours
# Description: as §1, §2
# [10] = tested on: HepG2 HCC
# Excerpt: (§4) An animal model of HCC cells (Bel-7402, HepG2) transplanted into nude mice was established according to the method described in ref. 10.
# [11] = tested on: Bel-7402 HCC
# Excerpt: as §4
# [12] = tested on: Caco2; test: Drug concentration in tumor cells by HPLC, Caco2; type: cell-based, human; details: incubated 2 hours
# [13] = tested on: Caco2; test: cells; type: cell-based, human; details: Caco2, MTT
# Description: as §3
# [14] = tested on: HepG2; test: cells; type: cell-based, human; details: HepG2, MTT
# Description: as §3
# [15] = tested on: Bel-7402; test: cells; type: cell-based, human; details: Bel-7402, MTT
# Description: as §3
# [16] = target: T1, PEPT1 (Homo sapiens, UniProt P46059); set-up: method as in previous research of the authors (Figure 1); details: Bel-7402, HepG2 and Caco-2 cells; ref previous research of the authors (Figure 1); cited from earlier work
# T1 construct: Doxorubicin-tripeptide conjugate were incubated with HCC cell monolayer at pH 6.0 for 120 min; endogenous in cells; host or cells: Bel-7402, HepG2 (human HCC cells); Caco-2
# T1 sequence (P46059 1-708): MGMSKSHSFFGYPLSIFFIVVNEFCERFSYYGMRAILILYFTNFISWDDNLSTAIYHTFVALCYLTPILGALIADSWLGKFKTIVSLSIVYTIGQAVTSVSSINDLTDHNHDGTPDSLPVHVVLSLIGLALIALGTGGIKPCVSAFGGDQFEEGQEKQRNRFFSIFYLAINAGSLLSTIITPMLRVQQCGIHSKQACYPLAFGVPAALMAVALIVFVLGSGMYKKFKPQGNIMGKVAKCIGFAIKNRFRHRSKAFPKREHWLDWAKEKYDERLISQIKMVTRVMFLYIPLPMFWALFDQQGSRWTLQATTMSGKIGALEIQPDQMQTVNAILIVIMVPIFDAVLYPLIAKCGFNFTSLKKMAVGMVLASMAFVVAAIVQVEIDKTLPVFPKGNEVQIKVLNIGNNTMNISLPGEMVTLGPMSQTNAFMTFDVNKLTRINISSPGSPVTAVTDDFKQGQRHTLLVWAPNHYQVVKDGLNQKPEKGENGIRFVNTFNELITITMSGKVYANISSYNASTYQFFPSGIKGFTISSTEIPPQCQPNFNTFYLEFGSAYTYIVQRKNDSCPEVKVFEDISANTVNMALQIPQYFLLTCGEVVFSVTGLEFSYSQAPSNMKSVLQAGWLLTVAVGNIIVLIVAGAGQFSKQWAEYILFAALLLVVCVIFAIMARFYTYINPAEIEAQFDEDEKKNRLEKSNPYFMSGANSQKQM
smiles,measurement,setting,value
COc1cccc2c1C(=O)c1c(O)c3c(c(O)c1C2=O)C[C@@](O)(C(=O)CO)C[C@@H]3O[C@H]1C[C@H](NC(=O)CNC(=O)CNC(=O)CN)[C@H](O)[C@H](C)O1 [Doxorubicin-tripeptide conjugate],AST,[1],637.75 ± 319.83 U/L
same,CK,[1],1070.75 ± 193.32 U/L
same,CK-Mb,[1],570.00 ± 99.07^b U/L
same,GSH-PX,[1],682.33 ± 51.09 U
same,LDH,[1],6116.75 ± 1136.22 U/L
same,MDA,[1],3.16 ± 0.26 nmol/mg
same,SOD,[1],164.15 ± 25.20 U/mg
same,PLT,[2],159.83 ± 74.74^b ×10^9/l
same,RBC,[2],7.50 ± 1.77 ×10^12/l
same,WBC,[2],7.05 ± 2.70^b ×10^9/l
same,drug concentration in tumor cells,[3],2940 ± 20 ng/mL
same,PLT,[4],135.00 ± 69.55 ×10^9/l
same,RBC,[4],8.03 ± 0.91 ×10^12/l
same,WBC,[4],8.08 ± 3.40 ×10^9/l
same,change of mice weight during treatment,"HCC mice, both dose groups","weight increase in group B at the early stage of treatment, but a weight decreased significantly at the late stage of treatment"
same,survival quality (general condition),"HCC mice, both dose groups","lethargy, vomiting and loss of appetite administered within 3 days, then gradually restored"
same,damage to heart and bone marrow,"compared with the Doxorubicin group, cardiac indexes, histopathology, blood routine, bone marrow smears, P < 0.05",less damage to the heart and bone marrow
same,drug distribution in tissues,[5],mainly distributed in subcutaneous tumor tissue and less in heart tissue
same,IC50,[6],50 µg/mL
same,AST,[7],720.83 ± 303.52^b U/L
same,CK,[7],1025.17 ± 182.34^b U/L
same,CK-Mb,[7],424.33 ± 189.91^b U/L
same,GSH-PX,[7],700.50 ± 79.58^b U
same,LDH,[7],6517.00 ± 1956.59 U/L
same,MDA,[7],2.78 ± 0.22^b nmol/mg
same,SOD,[7],171.71 ± 15.51 U/mg
same,drug distribution in tissues,[8],mainly distributed in subcutaneous tumor tissue and liver metastatic tumor tissue and less in heart tissue
same,drug concentration in tumor cells,[9],3080 ± 30 ng/mL
same,deaths during treatment,"[10]; HepG2, low dose group, 5W",no death
same,"Mice weight, Before treatment","[10]; HepG2 HCC mice, baseline",20.88 ± 5.37 g
same,"Mice weight, After treatment","[10]; HepG2 HCC mice, low dose: Doxorubicin 40 mg/m^2, conjugate 200 mg/m^2, tail vein, 5 weeks",19.90 ± 3.71 g
same,deaths during treatment,"[11]; Bel-7402, high dose group, 5W",1 death during the treatment of 4W+
same,"Mice weight, Before treatment","[11]; Bel-7402 HCC mice, baseline",23.22 ± 1.57 g
same,"Mice weight, After treatment","[11]; Bel-7402 HCC mice, high dose: Doxorubicin 60 mg/m^2, conjugate 300 mg/m^2, tail vein, 5 weeks",20.13 ± 1.09^a g
same,drug concentration in tumor cells,[12],3090 ± 30 ng/mL
same,IC50,[13],52.9 µg/mL
same,IC50,[14],51.4 µg/mL
same,IC50,[15],52.5 µg/mL
Cc1c(CC(=O)NCCCC[C@H](NC(=O)[C@@H](C)N)C(=O)O)c(=O)oc2cc(N)ccc12 [Ala-Lys-AMCA],inhibition of uptake by PEPT1 substrates,[16],competitive inhibition by three known substrates of PEPT1
same,uptake dependence on time and concentration,[16],time-dependent and concentration-dependent
